Assay results from PMC9381478 (Cellular and Molecular Life Sciences: CMLS, 2022).

B1: S. pombe ubiquitin with an N-terminal 6xhistidine-tag, TEV-cleavage site and an N-terminal free cysteine (natural protein)
chain: not shown
notes: ubiquitin of S. pombe, the cut product of its precursors; An added free cysteine stands N-terminal of ubiquitin together with the tag and the TEV linker; Used 15N-labelled or unlabelled; also called 15N-labeled ubiquitin; 15N-ubiquitin; source: E. coli BL21(DE3), purified (nickel Sepharose, SEC); not shown: His6, N-terminal, kept; TEV cleavage site, N-terminal, kept
B2: wild-type Dss1 peptide (peptide)
peptide: Ac-GDDTLWENNWDDEDI-NH2
notes: also called WT Dss1 peptide; UBS1 from Dss1; source: synthetic peptide, bought: TAG Copenhagen
B3: Dss1 N71C (mentioned as "Dss1 WT") (natural protein, S. pombe, UniProt O14140 1-71, looked up)
chain: MSRAALPSLENLEDDDEFEDFATENWPMKDTELDTGDDTLWENNWDDEDIGDDDFSVQLQAELKKKGVAAC
notes: Dss1 (deleted in split hand/split foot 1) of S. pombe; Used unlabelled, 15N- or 13C,15N-labelled; also called full-length Dss1; WT Dss1; source: E. coli BL21(DE3), purified (nickel Sepharose, ULP1 cleavage, reversed phase); not shown: His6-SUMO, N-terminal, cleaved
B4: PepDW (peptide)
peptide: Ac-DDTLWWENNWWDDED-NH2
notes: UBS1 of S. pombe Dss1 (O14140) with two extra tryptophans; also called double tryptophan; Pep42 (as soluble peptide); source: synthetic peptide, bought: TAG Copenhagen
B5: PepDM (peptide)
peptide: Ac-DLWENNWDLWENNWD-NH2
notes: core motif WENNW of S. pombe Dss1 (O14140) repeated; also called double motif; Pep43 (as soluble peptide); source: synthetic peptide, bought: TAG Copenhagen
B6: PepDWD (peptide)
peptide: Ac-DDTLWWEDDWWDDED-NH2
notes: PepDW with the two asparagines of the core substituted with aspartates; also called DWD peptide; source: synthetic peptide, bought: TAG Copenhagen
B7: PepDMD (peptide)
peptide: Ac-DLWEDDWDLWEDDWD-NH2
notes: PepDM with the asparagines of the core substituted with aspartates; also called DMD peptide; source: synthetic peptide, bought: TAG Copenhagen

target: T1, Spd1 (full-length) (S. pombe, UniProt Q10585 1-124); assay: NMR titration; 30 µM 15N-Spd1 with 560 µM ubiquitin added; CSPs mapped on Spd1; details: both partners purified
T1 construct: Spd1 of S. pombe; also called 15N-Spd1
T1 sequence (looked up): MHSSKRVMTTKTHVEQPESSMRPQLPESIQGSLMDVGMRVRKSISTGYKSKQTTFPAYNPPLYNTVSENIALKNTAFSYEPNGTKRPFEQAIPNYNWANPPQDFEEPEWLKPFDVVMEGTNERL

Q: Does B1 bind?
A: Result: binds

target: B1; assay: NMR titration; 100 µM 15N-ubiquitin, unlabelled peptide or protein added or titrated (peptides to 1 mM, WT Dss1 peptide to 5 mM); 20 mM NaH2PO4, 150 mM NaCl, 5 mM TCEP, pH 7.5; CSPs of 1H-15N-HSQC, global fit to a one-site model; details: both partners purified

Q: Which Kd does the source give for B2 here?
A: The Kd was 3000 ± 200 µM.

Q: For B3, which Kd is on record?
A: Its Kd is 380 ± 40 µM.

Q: For B4, which Kd is on record?
A: The Kd was 1200 ± 90 µM.

Q: Which Kd does the source give for B5 here?
A: The Kd was 1300 ± 120 µM.

Q: With B6 as the binder, how does the Kd read?
A: Its Kd is 600 ± 30 µM.

Q: For B7, which Kd is on record?
A: The Kd was 480 ± 40 µM.
